Laboratory results from patent US20250263470A1.

Experiments:
[1] = molecular target: recombinant HA derived from Yamagata lineage strain B/FLA/06 (B/Florida/4/2006) (influenza B virus B/Florida/4/2006); assay: ELISA on coated recombinant HA, unpurified IgG
[2] = molecular target: recombinant HA derived from Victoria lineage strain B/BNE/08 (B/Brisbane/60/2008) (influenza B virus B/Brisbane/60/2008); assay: ELISA on coated recombinant HA, unpurified IgG
[3] = molecular target: HA of influenza B virus ca B/Brisbane/60/2008 (victoria) (influenza B virus B/Brisbane/60/2008); assay: cell-based or functional assay
[4] = molecular target: HA of influenza B virus B/Shanghai/361/02 (yamagata) (influenza B virus B/Shanghai/361/02); assay: cell-based or functional assay
[5] = molecular target: HA of influenza B virus ca B/Victoria/504/2000 (yamagata) (influenza B virus B/Victoria/504/2000); assay: cell-based or functional assay
[6] = molecular target: HA of influenza B virus B/Yamagata/16/88 (yamagata) (influenza B virus B/Yamagata/16/88); assay: cell-based or functional assay
[7] = molecular target: HA of influenza B virus ca B/Johannesburg/5/99 (yamagata) (influenza B virus B/Johannesburg/5/99); assay: cell-based or functional assay
[8] = molecular target: HA of influenza B virus ca B/Beijing/243/97 (victoria) (influenza B virus B/Beijing/243/97); assay: cell-based or functional assay
[9] = molecular target: HA of influenza B virus B/Hong Kong/5/72 (influenza B virus B/Hong Kong/5/72); assay: cell-based or functional assay
[10] = molecular target: HA of influenza B virus B/Sichuan/379/99 (yamagata) (influenza B virus B/Sichuan/379/99); assay: cell-based or functional assay
[11] = molecular target: HA of influenza B virus B/Ohio/1/2005 (victoria) (influenza B virus B/Ohio/1/2005); assay: cell-based or functional assay
[12] = molecular target: HA of influenza B virus ca B/Georgia/02/98 (yamagata) (influenza B virus B/Georgia/02/98); assay: cell-based or functional assay
[13] = molecular target: HA of influenza B virus B/Malaysia/2506/2004 (victoria) (influenza B virus B/Malaysia/2506/2004); assay: cell-based or functional assay
[14] = molecular target: HA of influenza B virus ca B/Yamanashi/166/98 (yamagata) (influenza B virus B/Yamanashi/166/98); assay: cell-based or functional assay
[15] = molecular target: HA of influenza B virus ca B/Ann Arbor/1/66 (influenza B virus B/Ann Arbor/1/66); assay: cell-based or functional assay
[16] = molecular target: HA of influenza B virus ca B/Ann Arbor/2/94 (yamagata) (influenza B virus B/Ann Arbor/2/94); assay: cell-based or functional assay
[17] = molecular target: HA of influenza B virus B/Hong Kong/330/2001 (victoria) (influenza B virus B/Hong Kong/330/2001); assay: cell-based or functional assay
[18] = molecular target: HA of influenza B virus B/Lee/40 (influenza B virus B/Lee/40) (UniProt P03460); assay: cell-based or functional assay
[19] = molecular target: recombinant HA derived from influenza A subtype H9 (A/chicken/HK/G9/97 (H9N2)) (influenza A virus A/chicken/Hong Kong/G9/97 (H9N2)); assay: ELISA on coated recombinant H9 HA
[20] = molecular target: recombinant HA derived from Yamagata lineage strain B/FLA/06 (B/Florida/4/2006) (influenza B virus B/Florida/4/2006); assay: ELISA on coated recombinant HA, average of three experiments
[21] = molecular target: recombinant HA derived from Victoria lineage strain B/BNE/08 (B/Brisbane/60/2008) (influenza B virus B/Brisbane/60/2008); assay: as above

B1: FBC-39 (antibody, V domains shown)
VH: EVQLVVSGGGLVKPGGSLRLSCAASGLSFLNAWMSWVRQAPGKGLEWVGRIKSNTDGGTTDYAAPVKGRFSISRDDSKNMLFLHMSSLRTEDTAVYYCATDGPYSDDFRSGYAARYRYFGMDVWGQGTTVTVSS
VL: DIQMTQSPSSVSASVGDRVTITCRASQDISTWLAWYQQKPGKAPKLLIYAASSLQSGVPSRFSGSGSGTDFTLTISSLQPEDFATYFCQQANSFPPTFGQGTKLEIK
For B1, the EC50 [1] was 0.022 µg/mL, the EC50 [2] was 0.186 µg/mL and the Hemagglutination Inhibition Titer [3] was 20 nM. It also gave a Neutralization (Ave IC50 ug/ml) [3] of 0.238 µg/mL, a Hemagglutination Inhibition Titer [4] of 16 nM and a Hemagglutination Inhibition Titer [5] of 16 nM. For the same binder, the Hemagglutination Inhibition Titer [6] was 11 nM, the Hemagglutination Inhibition Titer [7] was 18 nM and the Neutralization (Ave IC50 ug/ml) [7] was 0.304 µg/mL. It also gave a Hemagglutination Inhibition Titer [8] of 14 nM, a Neutralization (Ave IC50 ug/ml) [8] of 0.218 µg/mL and a Hemagglutination Inhibition Titer [9] of 8 nM. It also gave a Neutralization (Ave IC50 ug/ml) [9] of 0.026 µg/mL, a Hemagglutination Inhibition Titer [10] of 10 nM and a Neutralization (Ave IC50 ug/ml) [10] of 0.034 µg/mL. The Hemagglutination Inhibition Titer [11] was 24 nM, the Hemagglutination Inhibition Titer [12] was 16 nM and the Hemagglutination Inhibition Titer [13] was 20 nM. It also gave a Neutralization (Ave IC50 ug/ml) [13] of 0.079 µg/mL, a Hemagglutination Inhibition Titer [14] of 13 nM and a Neutralization (Ave IC50 ug/ml) [14] of 0.039 µg/mL. The Hemagglutination Inhibition Titer [15] was 6 nM, the Neutralization (Ave IC50 ug/ml) [15] was 0.061 µg/mL and the Hemagglutination Inhibition Titer [16] was 6 nM. The Neutralization (Ave IC50 ug/ml) [16] was 0.027 µg/mL, the Hemagglutination Inhibition Titer [17] was 16 nM and the Neutralization (Ave IC50 ug/ml) [17] was 0.142 µg/mL. The Hemagglutination Inhibition Titer [18] was 5 nM, the Neutralization (Ave IC50 ug/ml) [18] was 0.021 µg/mL and the EC50 [19] was 6.2 µg/mL. It also gave an EC50 [20] of 0.02 µg/mL and an EC50 [21] of 0.048 µg/mL.
